Two substances from article PMC8383165 can be followed below.

The target of this experiment is GHSR with a TAG amber codon at F71^1.60 and a single reactive cysteine at position 255^6.27, doubly labelled (UniProt Q92847).
Chain of UniProt Q92847 (Q92847 1-70): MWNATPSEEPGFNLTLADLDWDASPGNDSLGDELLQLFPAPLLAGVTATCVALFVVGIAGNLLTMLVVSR

With LEAP2 (1–14) (peptide), the proximity ratio change from the intramolecular FRET between fluorophores in TM1 and TM6 of GHSR, in lipid nanodiscs with D2R amounted to 13.3. In the case of LEAP2 (1–12) (peptide), the proximity ratio change from the intramolecular FRET between fluorophores in TM1 and TM6 of GHSR, in lipid nanodiscs with D2R, 10 µM peptide stood at 11.9.
